These results are taken from patent publication US20170009259A1 (SUMITOMO RUBBER INDUSTRIES, published 2017).

To fix the notation:
T1: Hevea rubber transferase 2 (HRT2), cis-prenyltransferase from Hevea brasiliensis (Hevea brasiliensis, UniProt Q8W3U4 1-284)
T1 construct: In the yeast two-hybrid assay it was expressed from the pPR3-N prey vector (pPR-HRT2) or the pBT3-SUC bait vector (pBT-HRT2); also called CPT; pPR-HRT2
T1 sequence: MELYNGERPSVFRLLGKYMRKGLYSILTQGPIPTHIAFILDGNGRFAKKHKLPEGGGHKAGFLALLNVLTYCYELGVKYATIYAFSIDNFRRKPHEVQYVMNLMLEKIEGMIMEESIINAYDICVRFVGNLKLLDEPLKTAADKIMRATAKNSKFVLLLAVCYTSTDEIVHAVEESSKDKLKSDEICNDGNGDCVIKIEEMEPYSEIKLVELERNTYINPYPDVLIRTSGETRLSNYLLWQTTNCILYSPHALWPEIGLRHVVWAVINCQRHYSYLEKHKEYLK

B1: Nogo-B receptor (NgBr) from Hevea brasiliensis (receptor)
chain: MDLKPGAGGQRVNRLVDPISYHFLQFLWRTLHLLVSLWYLQVSMVQMIEGFLISSGLVKRYGALDIDKVRYLAIVVDSEEAYQISKVIQLLKWVEDMGVKHLCLYDSKGVLKTNKKTIMESLNNAMPFEEAVEKDVLLDQKQMTVEFASSSDGKEAITRAANVLFMKYLKYAKTGVGKEEPCFTEDQMDEALKAIGYKGPEPDLLLIYGPVRCHLGFSPWRLRYTEMVHMGPLRYMNLGSLKKAIHRFTTVQQNYGT
notes: In the yeast two-hybrid assay it was expressed from the pBT3-SUC bait vector (pBT-NgBr); also called pBT-NgBr
B2: Hevea rubber transferase 1 (HRT1), cis-prenyltransferase from Hevea brasiliensis (enzyme)
chain: MELYNGERPSVFRLLGKYMRKGLYSILTQGPIPTHIAFILDGNRRFAKKHKLPEGGGHKAGFLALLNVLTYCYELGVKYATIYAFSIDNFRRKPHEVQYVMDLMLEKIEGMIMEESIINAYDICVRFVGNLKLLSEPVKTAADKIMRATANNSKCVLLIAVCYTSTDEIVHAVEESSELNSNEVCNNQELEEANATGSGTVIQIENMESYSGIKLVDLEKNTYINPYPDVLIRTSGETRLSNYLLWQTTNCILYSPHALWPEIGLRHVVWAVINFQRHYSYLEKHKEYLK
notes: In the yeast two-hybrid assay it was expressed from the pPR3-N prey vector (pPR-HRT1) or the pBT3-SUC bait vector (pBT-HRT1); also called CPT; pPR-HRT1

Assay [1] addresses T1, Hevea rubber transferase 2 (HRT2), …. The experiment in a line: yeast two-hybrid, pPR-HRT2 prey with pBT-NgBr bait (pair No. 9), growth on Trp-, Leu-, Ade- and His-deficient SD medium. On the procedure: (§1) The yeast strain NMY-51 was transformed with the collected plasmids. The PEG method was used for the double transformation of the yeast. The transformant cells were cultured at 30° C. for three days on Trp- and Leu-deficient SD medium for screening.
(§2) In this experiment, the yeast can grow on the selective medium only when a protein encoded by the gene introduced in the bait plasmid interacts with a protein encoded by the gene introduced in the prey plasmid.

For assay [2] the target is unchanged. The experiment in a line: yeast two-hybrid, pPR-HRT1 prey with pBT-HRT2 bait (pair No. 6), growth on Trp-, Leu-, Ade- and His-deficient SD medium. On the procedure:
as §1, §2

In assay [3] the target is B1. Put plainly: yeast two-hybrid, pPR-HRT1 prey with pBT-NgBr bait (pair No. 5), growth on Trp-, Leu-, Ade- and His-deficient SD medium. On the procedure:
as §1, §2

Consider B1, for which the binding result in assay [1] is “no binding”. Regarding B2, the binding result in assay [2] was “no binding”; in assay [3] it was “binds”.
